The experiment concerns the target acidic H8 loop of karyopherin β2 (KAPB2-H8). As to the kind of experiment: turbidity (OD600) of liquid-liquid phase separation, critical salt concentration; 50 μM R-DPR peptide mixed with 50 μM KAPB2-H8 peptide in 10 mM HEPES pH 7.4 with 0 to 400 mM NaCl; droplets also imaged by confocal microscopy.

In the case of PRPRPRPRPRPRPRPRPRPRPRPRPRPRPRPRPRPRPRPR [(PR)20], the critical salt concentration (NaCl at which the droplets disappeared) is 250 mM. Turning to GRGRGRGRGRGRGRGRGRGRGRGRGRGRGRGRGRGRGRGR [(GR)20], the NaCl concentration until which the droplets remained came to 300 mM.

The record behind these values is paper PMC10275993.
